Our source for the Kd values is US20220025008A1 (FAPON BIOTECH, published 2022).

Positions count from the first letter of the chain named.

First the molecules themselves.
T1: Recombinant NT antigen (N-terminal pro-brain natriuretic peptide, NT-proBNP) (human, UniProt P16860 27-102)
T1 construct: domain: N-terminal pro-brain natriuretic peptide (NT-proBNP); also called recombinant NT protein; N-terminal pro-B-type natriuretic peptide
T1 sequence (looked up): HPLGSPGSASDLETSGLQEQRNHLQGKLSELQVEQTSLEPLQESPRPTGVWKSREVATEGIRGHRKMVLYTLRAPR

B1: Mutation 1-5 (antibody)
heavy: QVRLQESGPSQVKPAQTLSLTCAISGFSLTTYYVDWVRHTPGKPPEWLAQMTKDGNAVHNPTVRSRLSITRDTSKSQVFLKLTGVTTEDTAVYYCVRGVIDFGPGLLVTVSSASTTPPKVYPLTSCCGDTSSSIVTLGCLVSSYMPEPVTVTWNSGALTSGVHTFPAILQSSGLYSLSSVVTVPASTSGAQTFICNVAHPASSTKVDKRVEPGCPDPCKHCRCPPPELPGGPSVFIFPPKPKDTLTISGTPEVTCVVVDVGQDDPEVQFSWFVDNVEVRTARTKPREEQFNSTFRVVSALPIQHQDWTGGKEFKCKVHNEGLPAPIVRTISRTKGQAREPQVYVLAPPQEELSKSTLSVTCLVTGFYPDYIAVEWQKNGQPESEDKYGTTTSQLDADGSYFLYSRLRVDKNSWQEGDTYACVVMHEALHNHYTQKSISKPPGK
light: QAVLTQPSSVSRSLGQTVSITCSGSSDNVGFGDYINWFQLIPGSAPKTLIFGAYSRVRGVPDRFSGSRSGNTATLTINSLQAEDEADYYCGSGNSRNYVFGSGTRLTVLSQPKSAPSVTLFPPSKEELDTNKATVVCLISDFYPGSVNVVWKADGSTINQNVKTTQASKQSNSKYAASSYLTLTGSEWKSKSSYTCEVTHEGSTVTKTVKPSECS
B2: Mutation 1-9 (antibody)
heavy: B1 heavy with L29I, V34I, N60Q, V63L, V99L
light: QAVLTQPSSVSRSLGQTVSITCSGSSDQVGFGDYINWFQLIPGSAPKTLIFGASSRIRGVPDRFSGSRSGNTATLTINSLQAEDEADYYCGSANSRGGYVFGSGTRLTVLSQPKSAPSVTLFPPSKEELDTNKATVVCLISDFYPGSVNVVWKADGSTINQNVKTTQASKQSNSKYAASSYLTLTGSEWKSKSSYTCEVTHEGSTVTKTVKPSECS
B3: Mutation 1-11 (antibody)
heavy: B1 heavy with L29I, N60Q, V63I
light: B2 light with I35V, I57V, A93P
B4: Mutation 1-17 (antibody)
heavy: B1 heavy with L29V
light: B1 light with Y54T
B5: Mutation 1-28 (antibody, V domains shown)
VH: QVRLQESGPSQVKPAQTLSLTCAISGFSITTYYLDWVRHTPGKPPEWLAQMTKDGNAVHQPTVRSRLSITRDTSKSQVFLKLTGVTTEDTAVYYCVRGVIDWGPGLLVTVSS
VL: QAVLTQPSSVSRSLGQTVSITCSGSSDNVGFGDYLNWFQLIPGSAPKTLIFGASSRLRGVPDRFSGSRSGNTATLTINSLQAEDEADYYCGSGNSRGGYVFGSGTRLTVLS
B6: Mutation 1-6 (antibody, V domains shown)
VH: B5 VH with I29V, L34I, Q60N, V99I
VL: QAVLTQPSSVSRSLGQTVSITCSGSSDNVGFGDYINWFQLIPGSAPKTLIFGASSRIRGVPDRFSGSRSGNTATLTINSLQAEDEADYYCGSPNSRNYVFGSGTRLTVLS
B7: Mutation 1-18 (antibody, V domains shown)
VH: B5 VH with L34I, Q60N, V99I
VL: B6 VL with S54T
B8: Mutation 1-33 (antibody)
heavy: B1 heavy with L29V, V34I, N60Q, V63L, V99L
light: B2 light with S54Y
B9: WT 1-7 (antibody, V domains shown)
VH: B5 VH with F27P, I29V, G55A, R97K
V domain: B5 VL with F31P, L35I, G52A, S54Y, F101W
B10: Mutation 1-42 (antibody, V domains shown)
VH: B5 VH with I29V, L34I, Q60N, V99I
VL: B5 VL with L35I, L57I
B11: WT 1-6 (antibody, V domains shown)
VH: B5 VH with F27P, L34V, G55A, V63I, R97K, V99L
V domain: B5 VL with N28Q, F31P, G52A, G93A, F101W
B12: Mutation 1-38 (antibody, V domains shown)
VH: B5 VH with L34V, V63L, V99L
VL: B5 VL with N28Q, L35I, S54T, L57V
B13: Mutation 1-52 (antibody, V domains shown)
VH: B5 VH with I29V
VL: B5 VL with S54Y
B14: WT 1-4 (antibody)
heavy: B1 heavy with F27P, L29V, G55A, N60Q, V63L, R97K
light: B2 light with F31P, I35V, G52A, S54T, A93G, F101W

The target in this assay is T1, Recombinant NT antigen (N-terminal …). As to the kind of experiment: indirect ELISA, KD calculated from half-max OD at 4 coating concentrations. As for the experimental part: Recombinant NT antigen was diluted with coating solution to 1 μg/ml a microplate overnight at 4° C.; which was washed twice with washing solution and patted dry on the next day; with addition of blocking solution (20% BSA+80% PBS) at 120 μL per well at 37° C. for 1 h and patted dry; added the diluted NT monoclonal antibody, 100 μL/well at 37° C. for 30 min (partial supernatant for 1 h); washed 5 times with washing solution and patted dry; added rabbit anti-goat IgG-HRP […] per well at 37° C. for 30 min; washed 5 times with washing solution and patted dry; added color developing solution A (50 μL/well), added color developing solution B (50 μL/well) for 10 min; added stop solution, 50 μL/well; followed by reading the OD value at 450 nm (reference 630 nm) on the microplate reader.
Data from the enzyme immunoassay indirect method were analyzed in the same way as the activity identification, with four gradients of 3 μg/ml, 1.5 μg/ml, 0.75 μg/ml and 0.375 μg/ml for coating; the antibody was diluted from 1000 ng/ml by 2 times to 0.977 ng/ml for loading sample. OD values corresponding to different antibody concentrations at different coating concentrations were obtained. Under the same coating concentration, data were plotted logarithmically with the antibody concentration as the abscissa and the OD value as the ordinate.
The Kd is a measure of binding affinity in units of concentration. On to B1, for which the Kd was 6.1 nM.
On to B2, for which the Kd was 1.56 nM.
B3: the dissociation constant (Kd) was 1.52 nM.
As for B4, the Kd was 3.39 nM.
Consider B5, for which the dissociation constant Kd was 2.25 nM.
For the molecule B6, the Kd was 1.17 nM.
With B7, the equilibrium dissociation constant (Kd) was 1.73 nM.
Next, B8: 2.6 nM; B9: 5.05 nM; B10: 2.22 nM.
With B11, the Kd was 6.14 nM.
As to B12, the equilibrium dissociation constant (Kd) was 1.82 nM.
For the molecule B13, the Kd is 2.71 nM.
B14: the Kd was 3.02 nM.
